Laboratory results as given in the supplement of paper PMC10567573.

B1: TOR1AIP2 (parent)
chain: HHVADAYTSSQKVSPIQIDGAGRT
B2: SNX8 (parent)
chain: VVLKLFLSFSGSDVQNKLKESAQC

Variants of: B1
Test: protein stability index of a GFP-peptide fusion (GPS, HEK-293T) (PSI 1-6); higher = more stable
Conditions: c terminus: a fixed tail appended
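Further: lentivirally expressed fusions sorted by FACS into six bins by GFP to DsRed ratio, PSI derived from sequencing read proportions per bin multiplied by bin number.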

Point of comparison: HHVADAYTSSQKVSPIQIDGAGPT [R23P], protein stability index 3.01. Against it:
- HHVADAYTSSQKVSPIQIDTAGRT [G20T] — higher, 3.48
- HHVADAYTSSQKVSPIQIDRAGRT [G20R] — higher, 3.38
- HHVADAYTSSQKVSPIQIDMAGRT [G20M] — higher, 3.44
- HHVADAYTSSQKVSPIQIDHAGRT [G20H] — higher, 3.31
- HHVADAYTSSQKVSPIQIDNAGRT [G20N] — higher, 3.58
- HHVADAYTSSQKVSPIQIDSAGRT [G20S] — higher, 3.23
- HHVADAYTSSQKVSPIQIDIAGRT [G20I] — higher, 3.04
- HHVADAYTSSQKVSPIQIDPAGRT [G20P] — higher, 3.28
- HHVADAYTSSQKVSPIQIDQAGRT [G20Q] — higher, 3.7
- HHVADAYTSSQKVSPIQIDKAGRT [G20K] — higher, 3.38
- HHVADAYTSSQKVSPIQIDVAGRT [G20V] — higher, 3.33
- HHVADAYTSSQKVSPIQIDLAGRT [G20L] — lower, 2.78
- HHVADAYTSSQKVSPIQIDWAGRT [G20W] — lower, 2.33
- HHVADAYTSSQKVSPIQIDYAGRT [G20Y] — lower, 2.83
- HHVADAYTSSQKVSPIQIDFAGRT [G20F] — higher, 3.06
- HHVADAYTSSQKVSPIQIDGAGRH [T24H] — higher, 3.38
- HHVADAYTSSQKVSPIQIDGAGRE [T24E] — higher, 4
- HHVADAYTSSQKVSPIQIDGAGRY [T24Y] — lower, 2.93
- HHVADAYTSSQKVSPIQIDGAGRL [T24L] — higher, 3.09
- HHVADAYTSSQKVSPIQIDGAGRD [T24D] — higher, 4.18
- HHVADAYTSSQKVSPIQIDGAGRR [T24R] — higher, 3.68
- HHVADAYTSSQKVSPIQIDGAGRW [T24W] — lower, 2.97
- HHVADAYTSSQKVSPIQIDGAGRN [T24N] — higher, 3.97
- HHVADAYTSSQKVSPIQIDGAGRM [T24M] — lower, 2.98
- HHVADAYTSSQKVSPIQIDGAGRG [T24G] — higher, 3.85
- HHVADAYTSSQKVSPIQIDGAGRI [T24I] — lower, 3
- HHVADAYTSSQKVSPIQIDGAGRC [T24C] — higher, 3.43
- HHVADAYTSSQKVSPIQIDGAGRS [T24S] — higher, 3.58
- HHVADAYTSSQKVSPIQIDGAGRA [T24A] — higher, 3.36
- HHVADAYTSSQKVSPIQIDGAGRP [T24P] — higher, 3.46
- HHVADAYTSSQKVSPIQIDGAGRF [T24F] — lower, 2.81
- HHVADAYTSSQKVSPIQIDGAGRK [T24K] — higher, 3.9
- HHVADAYTSSQKVSPIQIDGAGRV [T24V] — higher, 3.51
- HHVADAYTSSQKVSPIQIDGAGRQ [T24Q] — higher, 3.3
- HHVADAYTSSQKVSPIQIDGAMRT [G22M] — higher, 3.32
- HHVADAYTSSQKVSPIQIDGAIRT [G22I] — higher, 3.26
- HHVADAYTSSQKVSPIQIDGASRT [G22S] — higher, 3.36
- HHVADAYTSSQKVSPIQIDGAFRT [G22F] — lower, 2.7
- HHVADAYTSSQKVSPIQIDGACRT [G22C] — higher, 3.6
- HHVADAYTSSQKVSPIQIDGAWRT [G22W] — lower, 2.46
- HHVADAYTSSQKVSPIQIDGAPRT [G22P] — higher, 3.61
- HHVADAYTSSQKVSPIQIDGANRT [G22N] — higher, 3.25
- HHVADAYTSSQKVSPIQIDGARRT [G22R] — higher, 3.19
- HHVADAYTSSQKVSPIQIDGADRT [G22D] — higher, 3.99
- HHVADAYTSSQKVSPIQIDGAKRT [G22K] — higher, 3.72
- HHVADAYTSSQKVSPIQIDGAERT [G22E] — higher, 3.93
- HHVADAYTSSQKVSPIQIDGAVRT [G22V] — higher, 3.4
- HHVADAYTSSQKVSPIQIDGALRT [G22L] — lower, 2.92
- HHVADAYTSSQKVSPIQIDGAART [G22A] — higher, 3.58
- HHVADAYTSSQKVSPIQIDGAHRT [G22H] — higher, 3.47
- HHVADAYTSSQKVSPIQIDGATRT [G22T] — higher, 3.09
- HHVADAYTSSQKVSPIQIDGAQRT [G22Q] — higher, 3.5
- HHVADAYTSSQKVSPIQIDGAYRT [G22Y] — lower, 2.82
- HHVADAYTSSQKVSPIQIDGRGRT [A21R] — higher, 3.55
- HHVADAYTSSQKVSPIQIDGVGRT [A21V] — higher, 3.34
- HHVADAYTSSQKVSPIQIDGEGRT [A21E] — higher, 3.32
- HHVADAYTSSQKVSPIQIDGMGRT [A21M] — higher, 3.58
- HHVADAYTSSQKVSPIQIDGGGRT [A21G] — higher, 3.62
- HHVADAYTSSQKVSPIQIDGPGRT [A21P] — higher, 3.48
- HHVADAYTSSQKVSPIQIDGFGRT [A21F] — higher, 3.18
- HHVADAYTSSQKVSPIQIDGYGRT [A21Y] — higher, 3.22
- HHVADAYTSSQKVSPIQIDGCGRT [A21C] — higher, 3.48
- HHVADAYTSSQKVSPIQIDGNGRT [A21N] — higher, 3.44
- HHVADAYTSSQKVSPIQIDGHGRT [A21H] — higher, 3.7
- HHVADAYTSSQKVSPIQIDGSGRT [A21S] — higher, 3.67
- HHVADAYTSSQKVSPIQIDGIGRT [A21I] — higher, 3.34
- HHVADAYTSSQKVSPIQIDGDGRT [A21D] — higher, 4.16
- HHVADAYTSSQKVSPIQIDGKGRT [A21K] — higher, 3.42
- HHVADAYTSSQKVSPIQIDGTGRT [A21T] — higher, 3.85
- HHVADAYTSSQKVSPIQIDGQGRT [A21Q] — higher, 3.85
- HHVADAYTSSQKVSPIQIDGLGRT [A21L] — higher, 3.42
- HHVADAYTSSQKVSPIQIDGWGRT [A21W] — lower, 2.67
- HHVADAYTSSQKVSPIQIDGAGKT [R23K] — higher, 3.28
- HHVADAYTSSQKVSPIQIDGAGST [R23S] — higher, 3.83
- HHVADAYTSSQKVSPIQIDGAGYT [R23Y] — lower, 2.94
- HHVADAYTSSQKVSPIQIDGAGMT [R23M] — higher, 3.26
- HHVADAYTSSQKVSPIQIDGAGIT [R23I] — higher, 3.45
- HHVADAYTSSQKVSPIQIDGAGVT [R23V] — higher, 3.29
- HHVADAYTSSQKVSPIQIDGAGQT [R23Q] — higher, 3.71
- HHVADAYTSSQKVSPIQIDGAGLT [R23L] — higher, 3.36
- HHVADAYTSSQKVSPIQIDGAGNT [R23N] — higher, 3.81
- HHVADAYTSSQKVSPIQIDGAGDT [R23D] — higher, 4.11
- HHVADAYTSSQKVSPIQIDGAGGT [R23G] — higher, 3.68
- HHVADAYTSSQKVSPIQIDGAGTT [R23T] — higher, 3.47
- HHVADAYTSSQKVSPIQIDGAGCT [R23C] — higher, 3.68
- HHVADAYTSSQKVSPIQIDGAGFT [R23F] — higher, 3.12
- HHVADAYTSSQKVSPIQIDGAGAT [R23A] — higher, 3.86
- HHVADAYTSSQKVSPIQIDGAGWT [R23W] — higher, 3.1
- HHVADAYTSSQKVSPIQIDGAGET [R23E] — higher, 3.91
- HHVADAYTSSQKVSPIQIDGAGHT [R23H] — higher, 3.76

Variants of: B2
Test: as above
Conditions: c terminus: a fixed tail appended

Point of comparison: VVLQLFLSFSGSDVQNKLKESAQC [K4Q], protein stability index 2.43. Against it:
- VVLHLFLSFSGSDVQNKLKESAQC [K4H] — higher, 2.6
- VVLPLFLSFSGSDVQNKLKESAQC [K4P] — higher, 3.99
